Data taken from patent US20160208003A1 (AFFITECH RESEARCH, published 2016).
Substitutions are numbered along the chain they refer to. One block for each binder: values may come before it.

Key:
[1] = target: T1, human CC chemokine receptor 4 (CCR4) (human, UniProt P51679 1-360); assay: calculated from the IC50; CCRF-CEM cells, competitor biotinylated MDC
T1 construct: whole, on cells; Always presented on cells; also called CD194; human CCR4
T1 sequence (looked up): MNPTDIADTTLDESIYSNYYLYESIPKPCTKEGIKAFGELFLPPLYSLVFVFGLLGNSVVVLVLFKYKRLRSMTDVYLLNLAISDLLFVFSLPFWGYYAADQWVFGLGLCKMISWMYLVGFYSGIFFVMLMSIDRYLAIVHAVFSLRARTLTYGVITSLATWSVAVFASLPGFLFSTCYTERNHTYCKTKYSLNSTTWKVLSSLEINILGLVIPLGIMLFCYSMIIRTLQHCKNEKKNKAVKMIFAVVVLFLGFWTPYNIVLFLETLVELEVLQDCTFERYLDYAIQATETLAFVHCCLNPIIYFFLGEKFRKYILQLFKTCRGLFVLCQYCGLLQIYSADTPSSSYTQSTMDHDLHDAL
Procedure: The competition binding assays were performed with biotinylated MDC or biotinylated TARC on DT-40-CCR4+ and CCRF-CEM cells. DT40 and CCRF-CEM cells were cultured as described in Example 2. TARC and MDC were biotinylated using standard procedures. The biotinylation process causes some losses, so the concentrations of biotinylated MDC and TARC recited herein are approximate.
The cells were harvested from culture flasks, washed 2 times with PBS (400×g, 5 min, 4° C.) and resuspended in PBS containing 0.2% BSA and 0.09% NaN3. 1×10^5 cells per well were aliquoted into V-shaped 96-well plates (Greiner Bio-One, Frikenhausen, Germany). Cells were centrifuged (400×g, 5 min, 4° C.) and resuspended in 50 μl IgG, single chain or unlabeled ligand (1:10 dilution series starting on 100/500/26, 4 μg/ml) mixed with a fixed concentration of biotinylated ligand (10 or 20 nM, see legend to FIG. 24). The cells were incubated for 2 hours at 4° C. and mixed with a pipette every 45 min. The cells were washed three times with 150 μl PBS with 0.2% BSA and 0.09% NaN3 and stained with 3 μg/ml streptavidin PE (BD Biosciences) for 45 minutes at 4° C. […] Apparent binding affinities (KD) were calculated according to the following equation derived from previously described methods (Kipriyanov et al, 1997b; Schodin & Kranz, 1993): […]

[2] = target: T1, human CC chemokine receptor 4 (CCR4); assay: calculated from the IC50 (KD=IC50/(1+[bio-MDC]/KD MDC)); DT-40-CCR4+ cells, competitor biotinylated MDC
[3] = target: T1, human CC chemokine receptor 4 (CCR4); assay: calculated from the IC50 (KD=IC50/(1+[bio-IgG 9E]/KD 9E)); DT-40-CCR4+ cells, competitor 3.3 nM biotinylated IgG 9E
Procedure: DT40 and CCRF-CEM cells were cultivated as described in Example 2. The cells were harvested from culture flasks, washed 2 times with PBS (400×g, 5 min, 4° C.) and resuspended in PBS containing 0.2% BSA and 0.09% NaN3. 1×10^5 cells per well were aliquoted into V-shaped 96-well plates (Griner Bio-One, Frikenhausen, Germany). Cells were centrifuged (400×g, 5 min, 4° C.) and resuspended in 50 μl IgG 9E10J or KM3060var (dilution series starting at 5 μg/ml) mixed with biotinylated competitor antibody 9E (0.1 or 0.5 μg/ml). The cells were incubated for 2 hours at 4° C., mixing with a pipette every 45 min. The cells were washed three times with 150 μl PBS with 0.2% BSA and 0.09% NaN3 and stained with 3 μg/ml streptavidin PE (BD Biosciences) for 45 minutes at 4° C. Cells were washed, resuspended in 200 μl PBS with 0.2% BSA and 0.09% NaN3, and transferred to a U-shaped 96 well Costar (Corning, Schiphol-Rijik, The Netherlands) plate for flow cytometry using an FACS Canto II flow cytometer (BD Biosciences, Heidelberg, Germany).

[4] = target: T1, human CC chemokine receptor 4 (CCR4); assay: flow cytometry, IgG titration on CCRF-CEM cells; one site-specific binding fit (Prism)
Procedure: The IgG forms of antibodies 17G, 9E and KM3060var using various CCR4⁺ cell types were used (see Example 2).
For the flow cytometry experiments, the cells were harvested from the culture flasks, washed 2 times with PBS, re-suspended in PBS with 0.2% BSA and 0.09% NaN₃ and finally aliquoted 1×10⁵ cells per well into V-shaped 96-well plates (Greiner Bio-One, Frickenhausen, Germany). Cells were centrifuged at 400×g for 5 min and then incubated at 4° C. for 45 min with different antibody dilutions.
After washing with PBS with 0.2% BSA and 0.09% NaN₃, the cells were stained with 10 μg/ml of RPE-conjugated goat anti-human IgG (AbDSerotec, Düsseldorf, Germany) for 30 minutes at 4° C. The stained cells were washed, re-suspended in 200 μl PBS with 0.2% BSA and 0.09% NaN₃ and transferred to a U-shaped 96-well plate (Corning, Schiphol-Rijk, The Netherlands) for acquisition on EasyCyte flow cytometer (Guava Technologies, Hayward, Calif., USA).

Kd [1]: 0.2 nM | Kd [2]: 0.01 nM
B1: 9E10J IgG (full length human IgG1, lambda) (antibody, V domains shown)
VH: QVQLVQSGAEVKKPGSSVKVSCKASGGTFSSYAISWVRQAPGQGLEWMGGIIPIFGTANYAQKFQGRVTMTRDTSTSTVYMELSSLRSEDTAVYYCARRGGSYFDYWGQGTLVTVSS
VL: SYVLTQPPSASGTPGQSVTISCSGSTSNIGSHYVFWYQQLPGTAPRLLIYRNHQRPSGVPDRLSGSKSGTSASLAISGLRSEDEADYYCAVWDDTLSGWVFGGGTKLTVLG
notes: also called IgG 9E10J; unmodified 9E10J

Kd [3]: 2.1 nM | Kd [4]: 0.39 nM
B2: 9E IgG (full length human IgG1, lambda) (antibody, V domains shown)
VH: B1 VH with S31N, M70I, R72A, T74E, V79A
VL: B1 VL
notes: also called IgG 9E; IgG1 9E
